# Assay results reported in article PMC4499159, “Quantitative characterization of protein–protein complexes involved in base excision DNA repair”.
# B1: gap-DNA (dsDNA)
# DNA 1: GGCGATTAAGTTGGG
# DNA 2: AACGTCAGGGTCTTCC
# DNA 3: GGAAGACCCTGACGTTACCCAACTTAATCGCC
# modifications: 5'-phosphate on downstream primer
# Tests used:
# [1] = molecular target: T1, DNA polymerase beta (Polβ) (rat, UniProt P06766 1-335); experiment: fluorescence titration; TAF-Polβ; n 0.94; 50 mM HEPES pH 8.0, 100 mM NaCl, 4 mM DTT (+10 mM EDTA for APE1); labelled protein from 20 nM; temperature not stated
# AP endonuclease 1 (APE1) = AP endonuclease 1 (APE1) (human, UniProt P27695 1-318); experiment: fluorescence titration; TAF-APE1; 10 mM EDTA; n 1.15; 50 mM HEPES pH 8.0, 100 mM NaCl, 4 mM DTT (+10 mM EDTA for APE1); labelled protein from 20 nM; temperature not stated; conditions: protein: recombinant; tags: TAF- or FAM-labelled (terminal amino group primarily); blunt outer ends, 1-nt gap; upstream 15-mer + downstream 16-mer on 32-mer template
# [2] = molecular target: T1, DNA polymerase beta (Polβ); experiment: fluorescence titration; FAM-Polβ; n 1.3; 50 mM HEPES pH 8.0, 100 mM NaCl, 4 mM DTT (+10 mM EDTA for APE1); labelled protein from 20 nM; temperature not stated
# XRCC1 = XRCC1 (human, UniProt P18887 1-633); experiment: fluorescence titration; TAF-XRCC1; n 0.90; 50 mM HEPES pH 8.0, 100 mM NaCl, 4 mM DTT (+10 mM EDTA for APE1); labelled protein from 20 nM; temperature not stated; conditions: protein: recombinant; tags: TAF-labelled; blunt outer ends, 1-nt gap; upstream 15-mer + downstream 16-mer on 32-mer template
binder,measurement,setting,value
B1,apparent K (half saturation),[1],30 nM
same,apparent K (half saturation),AP endonuclease 1 (APE1),25 ± 3 nM
same,apparent K (half saturation),[2],23 nM
same,apparent K (half saturation),XRCC1,25 ± 4 nM
